Results on one protein are retold here after publication PMC3169410 (Acta Crystallographica Section F: Structural Biology and …, 2011).

The data set concerns the molecule itself. Kind of data set: crystal structure.

B1: BrabA.11339.a, putative β-lactamase-like protein from Brucella melitensis biovar Abortus 2308 (natural protein)
chain: TSPRNCLRFTLLGCGSSPGVPRINGDWGKCDPKNPKNRRRRASLLVERYDAEGNNTVVVIDTGPDFRMQMIDSGVHMLDAAVYTHPHADHIHGIDDLRTYVVDNGRLMDVYANRLTRNRLYDTFGYCFETPVGSSYPPILSMHDIAPETPFSIEGAGGAIRFEPFSQVHGDIESLGFRIGSVVYCTDVSAFPEQSLQYIKDADVLIIGALQYRPHPSHFSLGEALEWIEKLSPKRAILTHMHVPLDYETVMRETPHHVEPGYDGLRFEVAV
notes: also called BAB1_1016
On to B1, for which the stoichiometry N (usually a count of units in the complex or per binding partner) worked out at 2.
